In patent US20200297818A1 (ZEALAND PHARMA A S, published 2020):
Where a chain is given by its changes, count along the chain named.

T1: human GLP-2 receptor (hGLP2-R) (human, UniProt O95838 1-553)
T1 sequence (looked up): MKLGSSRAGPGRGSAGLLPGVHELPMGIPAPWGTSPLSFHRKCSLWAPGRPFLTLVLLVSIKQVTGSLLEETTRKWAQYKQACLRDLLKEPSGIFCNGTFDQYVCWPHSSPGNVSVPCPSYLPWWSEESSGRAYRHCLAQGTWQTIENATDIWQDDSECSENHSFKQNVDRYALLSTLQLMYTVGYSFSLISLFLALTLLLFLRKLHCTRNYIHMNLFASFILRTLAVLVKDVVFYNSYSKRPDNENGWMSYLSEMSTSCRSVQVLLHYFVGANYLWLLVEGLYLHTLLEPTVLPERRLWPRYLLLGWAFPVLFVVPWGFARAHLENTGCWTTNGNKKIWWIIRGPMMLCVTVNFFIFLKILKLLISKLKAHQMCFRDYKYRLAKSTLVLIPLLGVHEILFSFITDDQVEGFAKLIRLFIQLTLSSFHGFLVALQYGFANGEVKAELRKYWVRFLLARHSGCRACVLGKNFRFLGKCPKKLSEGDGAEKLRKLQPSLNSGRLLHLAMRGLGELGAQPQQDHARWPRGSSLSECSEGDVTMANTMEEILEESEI

B1: Compound 15 (peptide)
peptide: HXEGTFTSELATILDXLAARDFIAWLIAHKITD
HELM: PEPTIDE1{H.[Aib].E.G.T.F.T.S.E.L.A.T.I.L.D.K.L.A.A.R.D.F.I.A.W.L.I.A.H.K.I.T.D}|PEPTIDE2{[O=C(O)CCCCCCCCCCCCCCCCC(=O)[*:2]].[gGlu]}$PEPTIDE1,PEPTIDE2,16:R3-2:R2$$$V2.0
SMILES: CC[C@H](C)[C@H](NC(=O)[C@H](CC(C)C)NC(=O)[C@H](Cc1c[nH]c2ccccc12)NC(=O)[C@H](C)NC(=O)[C@@H](NC(=O)[C@H](Cc1ccccc1)NC(=O)[C@H](CC(=O)O)NC(=O)[C@H](CCCNC(=N)N)NC(=O)[C@H](C)NC(=O)[C@H](C)NC(=O)[C@H](CC(C)C)NC(=O)[C@H](CCCCNC(=O)CC[C@H](NC(=O)CCCCCCCCCCCCCCCCC(=O)O)C(=O)O)NC(=O)[C@H](CC(=O)O)NC(=O)[C@H](CC(C)C)NC(=O)[C@@H](NC(=O)[C@@H](NC(=O)[C@H](C)NC(=O)[C@H](CC(C)C)NC(=O)[C@H](CCC(=O)O)NC(=O)[C@H](CO)NC(=O)[C@@H](NC(=O)[C@H](Cc1ccccc1)NC(=O)[C@@H](NC(=O)CNC(=O)[C@H](CCC(=O)O)NC(=O)C(C)(C)NC(=O)[C@@H](N)Cc1c[nH]cn1)[C@@H](C)O)[C@@H](C)O)[C@@H](C)O)[C@@H](C)CC)[C@@H](C)CC)C(=O)N[C@@H](C)C(=O)N[C@@H](Cc1c[nH]cn1)C(=O)N[C@@H](CCCCN)C(=O)N[C@H](C(=O)N[C@H](C(=O)N[C@@H](CC(=O)O)C(=O)O)[C@@H](C)O)[C@@H](C)CC
B2: Compound 16 (peptide)
peptide: B1 peptide with L17E, D21L, A28E
HELM: PEPTIDE1{H.[Aib].E.G.T.F.T.S.E.L.A.T.I.L.D.K.E.A.A.R.L.F.I.A.W.L.I.E.H.K.I.T.D}|PEPTIDE2{[O=C(O)CCCCCCCCCCCCCCCCC(=O)[*:2]].[gGlu]}$PEPTIDE1,PEPTIDE2,16:R3-2:R2$$$V2.0
SMILES: CC[C@H](C)[C@H](NC(=O)[C@H](Cc1ccccc1)NC(=O)[C@H](CC(C)C)NC(=O)[C@H](CCCNC(=N)N)NC(=O)[C@H](C)NC(=O)[C@H](C)NC(=O)[C@H](CCC(=O)O)NC(=O)[C@H](CCCCNC(=O)CC[C@H](NC(=O)CCCCCCCCCCCCCCCCC(=O)O)C(=O)O)NC(=O)[C@H](CC(=O)O)NC(=O)[C@H](CC(C)C)NC(=O)[C@@H](NC(=O)[C@@H](NC(=O)[C@H](C)NC(=O)[C@H](CC(C)C)NC(=O)[C@H](CCC(=O)O)NC(=O)[C@H](CO)NC(=O)[C@@H](NC(=O)[C@H](Cc1ccccc1)NC(=O)[C@@H](NC(=O)CNC(=O)[C@H](CCC(=O)O)NC(=O)C(C)(C)NC(=O)[C@@H](N)Cc1c[nH]cn1)[C@@H](C)O)[C@@H](C)O)[C@@H](C)O)[C@@H](C)CC)C(=O)N[C@@H](C)C(=O)N[C@@H](Cc1c[nH]c2ccccc12)C(=O)N[C@@H](CC(C)C)C(=O)N[C@H](C(=O)N[C@@H](CCC(=O)O)C(=O)N[C@@H](Cc1c[nH]cn1)C(=O)N[C@@H](CCCCN)C(=O)N[C@H](C(=O)N[C@H](C(=O)N[C@@H](CC(=O)O)C(=O)O)[C@@H](C)O)[C@@H](C)CC)[C@@H](C)CC
B3: Compound 17 (peptide)
peptide: B1 peptide with T7S, L17Q, A28Q
HELM: PEPTIDE1{H.[Aib].E.G.T.F.S.S.E.L.A.T.I.L.D.K.Q.A.A.R.D.F.I.A.W.L.I.Q.H.K.I.T.D}|PEPTIDE2{[O=C(O)CCCCCCCCCCCCCCCCC(=O)[*:2]].[gGlu]}$PEPTIDE1,PEPTIDE2,16:R3-2:R2$$$V2.0
SMILES: CC[C@H](C)[C@H](NC(=O)[C@H](Cc1ccccc1)NC(=O)[C@H](CC(=O)O)NC(=O)[C@H](CCCNC(=N)N)NC(=O)[C@H](C)NC(=O)[C@H](C)NC(=O)[C@H](CCC(N)=O)NC(=O)[C@H](CCCCNC(=O)CC[C@H](NC(=O)CCCCCCCCCCCCCCCCC(=O)O)C(=O)O)NC(=O)[C@H](CC(=O)O)NC(=O)[C@H](CC(C)C)NC(=O)[C@@H](NC(=O)[C@@H](NC(=O)[C@H](C)NC(=O)[C@H](CC(C)C)NC(=O)[C@H](CCC(=O)O)NC(=O)[C@H](CO)NC(=O)[C@H](CO)NC(=O)[C@H](Cc1ccccc1)NC(=O)[C@@H](NC(=O)CNC(=O)[C@H](CCC(=O)O)NC(=O)C(C)(C)NC(=O)[C@@H](N)Cc1c[nH]cn1)[C@@H](C)O)[C@@H](C)O)[C@@H](C)CC)C(=O)N[C@@H](C)C(=O)N[C@@H](Cc1c[nH]c2ccccc12)C(=O)N[C@@H](CC(C)C)C(=O)N[C@H](C(=O)N[C@@H](CCC(N)=O)C(=O)N[C@@H](Cc1c[nH]cn1)C(=O)N[C@@H](CCCCN)C(=O)N[C@H](C(=O)N[C@H](C(=O)N[C@@H](CC(=O)O)C(=O)O)[C@@H](C)O)[C@@H](C)CC)[C@@H](C)CC
B4: Compound 18 (peptide)
peptide: B1 peptide with T5S, L17Q, A28Q
HELM: PEPTIDE1{H.[Aib].E.G.S.F.T.S.E.L.A.T.I.L.D.K.Q.A.A.R.D.F.I.A.W.L.I.Q.H.K.I.T.D}|PEPTIDE2{[O=C(O)CCCCCCCCCCCCCCCCC(=O)[*:2]].[gGlu]}$PEPTIDE1,PEPTIDE2,16:R3-2:R2$$$V2.0
SMILES: CC[C@H](C)[C@H](NC(=O)[C@H](Cc1ccccc1)NC(=O)[C@H](CC(=O)O)NC(=O)[C@H](CCCNC(=N)N)NC(=O)[C@H](C)NC(=O)[C@H](C)NC(=O)[C@H](CCC(N)=O)NC(=O)[C@H](CCCCNC(=O)CC[C@H](NC(=O)CCCCCCCCCCCCCCCCC(=O)O)C(=O)O)NC(=O)[C@H](CC(=O)O)NC(=O)[C@H](CC(C)C)NC(=O)[C@@H](NC(=O)[C@@H](NC(=O)[C@H](C)NC(=O)[C@H](CC(C)C)NC(=O)[C@H](CCC(=O)O)NC(=O)[C@H](CO)NC(=O)[C@@H](NC(=O)[C@H](Cc1ccccc1)NC(=O)[C@H](CO)NC(=O)CNC(=O)[C@H](CCC(=O)O)NC(=O)C(C)(C)NC(=O)[C@@H](N)Cc1c[nH]cn1)[C@@H](C)O)[C@@H](C)O)[C@@H](C)CC)C(=O)N[C@@H](C)C(=O)N[C@@H](Cc1c[nH]c2ccccc12)C(=O)N[C@@H](CC(C)C)C(=O)N[C@H](C(=O)N[C@@H](CCC(N)=O)C(=O)N[C@@H](Cc1c[nH]cn1)C(=O)N[C@@H](CCCCN)C(=O)N[C@H](C(=O)N[C@H](C(=O)N[C@@H](CC(=O)O)C(=O)O)[C@@H](C)O)[C@@H](C)CC)[C@@H](C)CC

Biological target: human glucagon-like peptide 1 receptor (GLP-1 R) (human, UniProt P43220 24-463)
Experiment: cell-based or functional assay

EC50 GLP-1 (nM); cAMP response [nM]	Binder
0.25	B1
0.073	B2
0.9	B3
0.19	B4

Biological target: T1, human GLP-2 receptor (hGLP2-R)
Experiment: cell-based or functional assay

EC50 GLP-2 (nM); cAMP response [nM]	Binder
0.16	B1
0.68	B2
0.33	B3
0.21	B4
